Results published in US20250304690A1 (HANGZHOU VIROMAB BIOTECH, published 2025).
Read-outs that look alike come from different tables or passages of the source.

How the values were obtained:
[1] = molecular target: hCD3 (human CD3 antigen) (human, UniProt P07766 23-126); test: ELISA, plate-coated hCD3
Procedure: The activity of the prepared humanized antibodies was assessed by ELISA as follows: hCD3 (human CD3 antigen) was diluted to 0.5 g/mL using a coating solution and then added to a 96-well plate at 100 μL/well, and the plate was incubated overnight at 4° C. The plate was washed with PBST. Then 200 µL of a blocking solution was added to each well, and blocking was performed at a temperature of 37° C. for 2 h. The plate was washed with PBST. Then diluted antibodies (the initial concentration was 40 nM, and serial dilution was performed in a 1:6 ratio) were added at 100 L/well, and the plate was incubated at a temperature of 37° C. for 2 h. The plate was washed with PBST. Then an HRP-labeled goat anti-human IgG was added at 100 L/well, and the plate was incubated at 37° C. for 1 h. The plate was washed with PBST, and TMB was added at 100 L/well. Color development was performed at 37° C. for 10-20 min, and 50 µL of 2 M H₂SO₄ was added to each well to stop the reaction. Readings were taken at 450 nm.

[2] = molecular target: T1, CD3 on Jurkat cells and on human T cells (human, UniProt P07766 23-207); test: flow cytometry on Jurkat cells
T1 construct: whole, on cells; also called CD3 end; CD3 antigen
T1 sequence (P07766 23-207): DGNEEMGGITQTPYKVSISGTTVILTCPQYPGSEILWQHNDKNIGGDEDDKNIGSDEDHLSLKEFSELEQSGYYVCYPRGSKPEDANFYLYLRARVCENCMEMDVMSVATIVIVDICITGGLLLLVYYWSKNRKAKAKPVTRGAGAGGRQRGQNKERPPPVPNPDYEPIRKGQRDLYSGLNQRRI
Procedure: (§1) Then diluted antibodies with different concentrations were added. The cells were incubated at 4° C. for 0.5 h, centrifuged at 1200 rpm for 3-5 min, and washed with a FACS buffer. Then a goat anti-human IgG secondary antibody (manufacturer: Abcam, ab98596) was added at 100 L/well. The cells were incubated at 4° C. for 0.5 h, centrifuged at 1200 rpm for 3-5 min, washed with a FACs buffer, and resuspended in 50 μL of a FACs buffer, and assays were performed using a flow cytometer.

[3] = molecular target: CD3 on 293T-CD3 cells; test: flow cytometry on 293T-CD3 cells
Chain of CD3 on 293T-CD3 cells (chain, as listed by the source): as the sequence (P07766 23-207) above
Procedure: as §1

[4] = molecular target: T1, CD3 on Jurkat cells and on human T cells; test: flow cytometry on Jurkat cells; remark: listed apart in the source
Procedure: Jurkat cells were plated, washed with a FACS buffer, and centrifuged at 1200 rpm for 3-5 min. Then diluted antibodies with different concentrations were added at 100 L/well. The cells were incubated at 4° C. for 0.5 h, centrifuged at 1200 rpm for 3-5 min, and washed with a FACS buffer. Then a diluted goat anti-human IgG (FITC, Abcam/ab97224) antibody was added. The cells were incubated at 4° C. for 0.5 h, centrifuged at 1200 rpm for 3-5 min, washed with a FACS buffer, and resuspended in 50 μL of a FACs buffer, and assays were performed using a flow cytometer.

[5] = molecular target: TT3 labeling polypeptide on cells; test: flow cytometry on HCT116-TT3 cells
Chain of TT3 labeling polypeptide on cells (P01732 other isoform, or with tags, fused parts or gaps limits assumed): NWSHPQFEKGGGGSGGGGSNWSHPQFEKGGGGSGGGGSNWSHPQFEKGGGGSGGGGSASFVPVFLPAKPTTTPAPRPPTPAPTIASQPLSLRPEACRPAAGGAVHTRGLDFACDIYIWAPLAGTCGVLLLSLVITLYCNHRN

Chain of hCD3 (human CD3 antigen) (P07766 23-126): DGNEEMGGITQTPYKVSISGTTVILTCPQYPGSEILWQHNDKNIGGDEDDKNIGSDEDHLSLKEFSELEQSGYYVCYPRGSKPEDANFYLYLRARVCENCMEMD

Row | Binder | EC50 [1] | EC50 [2] | EC50 [3] | EC50 [4] | EC50 [5]
1 | CD3 Ab15 (antibody, human IgG1, kappa, V domains shown, also called humanized anti-CD3 monoclonal antibody) VH: EVQLVESGGGLVQPGGSLRLSCAASGFTFNTYAMNWVRQAPGKGLEWVARIRSKYNNYATYYADSVKDRFTISRDDSKNILYLQMNSLKTEDTAMYYCVRHGNFGNSYVSWFAYWGQGTLVTVSA VL: QAVVTQEPSLTVSPGGTVTLTCRSSTGAVTTSNYANWVQEKPGQAPRGLIGGTNKRAPWVPARFSGSLLGDKAALTLSGAQTEDEAEYYCALWYSNLWVFGGGTKLTVLR | 0.0099 nM | 1.11 nM | 3.48 nM | – | –
2 | BK-A-101 (bispecific antibody, human IgG1, kappa, also called bispecific antibody; the bispecific antibody) heavy: not shown light: QAVVTQESALTTSPGETVTLTCRSSTGAVTTSNYANWVQEKPDHLFTGLIGGTNKRAPGVPARFSGSLIGDKAALTITGAQTEDEAIYFCALWYSNLWVFGGGTKLTVLRTVAAPSVFIFPPSDEQLKSGTASVVCLLNNFYPREAKVQWKVDNALQSGNSQESVTEQDSKDSTYSLSSTLTLSKADYEKHKVYACEVTHQGLSSPVTKSFNRGEC | – | – | – | 0.8 nM | 15.8 nM
3 | BK-D-08 (bispecific antibody, human IgG1, kappa) heavy: QVQLVQSGAEVKKPGASVKVSCKASGYTFTNYYMKWVKQAPGQRLEWMGDLNPNNGDTFYNQKFKGRVTITVDKSASTAYMELSSLRSEDTAVYYCARTGRYEENAMDYWGQGTLVTVSSASTKGPSVFPLAPSSKSTSGGTAALGCLVKDYFPEPVTVSWNSGALTSGVHTFPAVLQSSGLYSLSSVVTVPSSSLGTQTYICNVNHKPSNTKVDKRVEPKSCDKTHTCPPCPAPEFEGGPSVFLFPPKPKDTLMISRTPEVTCVVVDVSHEDPEVKFNWYVDGVEVHNAKTKPREEQYNSTYRVVSVLTVLHQDWLNGKEYKCKVSNKALPASIEKTISKAKGQPREPQVYTLPPSREEMTKNQVSLTCLVKGFYPSDIAVEWESNGQPENNYKTTPPVLDSDGSFFLYSKLTVDKSRWQQGNVFSCSVMHEALHNHYTQKSLSLSPGKGGGGSGGGGSGGGGSQAVVTQEPSLTVSPGGTVTLTCRSSTGAVTTSNYANWVQQKPGQAPRGLIGGTNKRAPWTPARFSGSLLGGKAALTLSGAQPEDEAEYYCALWYSNLWVFGGGTKLTVLGGGGSGGGGSGGGGSEVQLVESGGGLVQPGGSLRLSCAASGFTFNTYAMNWVRQAPGKGLEWVARIRSKYNNYATYYADSVKDRFTISRDDSKNILYLQMNSLKTEDTAMYYCVRHGNFGNSYVSWFAYWGQGTLVTVSA light: DIVLTQSPASLAVSPGQRATITCRASESVDSYGKSFMHWYQQKPGQPPKLLIYRASNLESGVPARFSGSGSRTDFTLTINPVEANDTANYYCQQNNEDPWTFGQGTKLEIKRTVAAPSVFIFPPSDEQLKSGTASVVCLLNNFYPREAKVQWKVDNALQSGNSQESVTEQDSKDSTYSLSSTLTLSKADYEKHKVYACEVTHQGLSSPVTKSFNRGEC | – | – | – | 136 nM | 0.368 nM
4 | BK-D-01 (bispecific antibody, human IgG1, kappa) heavy: QVQLVQSGAEVKKPGASVKVSCKASGYTFTNYYMKWVKQAPGQSLEWIGDLNPNNGDTFYNQKFKGKATLTVDKSASTAYMELNSLRSEDTAVYYCARTGRYEENAMDYWGQGTLVTVSSASTKGPSVFPLAPSSKSTSGGTAALGCLVKDYFPEPVTVSWNSGALTSGVHTFPAVLQSSGLYSLSSVVTVPSSSLGTQTYICNVNHKPSNTKVDKRVEPKSCDKTHTCPPCPAPEFEGGPSVFLFPPKPKDTLMISRTPEVTCVVVDVSHEDPEVKFNWYVDGVEVHNAKTKPREEQYNSTYRVVSVLTVLHQDWLNGKEYKCKVSNKALPASIEKTISKAKGQPREPQVYTLPPSREEMTKNQVSLTCLVKGFYPSDIAVEWESNGQPENNYKTTPPVLDSDGSFFLYSKLTVDKSRWQQGNVFSCSVMHEALHNHYTQKSLSLSPGKGGGGSGGGGSGGGGSQAVVTQEPSLTVSPGGTVTLTCRSSTGAVTTSNYANWVQQKPGQAPRGLIGGTNKRAPWTPARFSGSLLGGKAALTLSGAQPEDEAEYYCALWYSNLWVFGGGTKLTVLGGGGSGGGGSGGGGSEVQLVESGGGLVQPGGSLRLSCAASGFTFNTYAMNWVRQAPGKGLEWVARIRSKYNNYATYYADSVKDRFTISRDDSKNSLYLQMNSLKTEDTAVYYCVRHGNFGNSYVSWFAYWGQGTLVTVSA light: DIVLTQSPASLAVSPGQRATITCRASESVDSYGKSFMHWYQQKPGQPPKLLIYRASNLESGVPARFSGSGSRTDFTLTINPVEANDTANYYCQQNNEDPWTFGQGTKLEIKRTVAAPSVFIFPPSDEQLKSGTASVVCLLNNFYPREAKVQWKVDNALQSGNSQESVTEQDSKDSTYSLSSTLTLSKADYEKHKVYACEVTHQGLSSPVTKSFNRGEC | – | – | – | 62.5 nM | 0.07 nM
5 | BK-D-02 (bispecific antibody, human IgG1, kappa) heavy: QVQLVQSGAEVKKPGASVKVSCKASGYTFTNYYMKWVKQAPGQSLEWIGDLNPNNGDTFYNQKFKGKATLTVDKSASTAYMELNSLRSEDTAVYYCARTGRYEENAMDYWGQGTLVTVSSASTKGPSVFPLAPSSKSTSGGTAALGCLVKDYFPEPVTVSWNSGALTSGVHTFPAVLQSSGLYSLSSVVTVPSSSLGTQTYICNVNHKPSNTKVDKRVEPKSCDKTHTCPPCPAPEFEGGPSVFLFPPKPKDTLMISRTPEVTCVVVDVSHEDPEVKFNWYVDGVEVHNAKTKPREEQYNSTYRVVSVLTVLHQDWLNGKEYKCKVSNKALPASIEKTISKAKGQPREPQVYTLPPSREEMTKNQVSLTCLVKGFYPSDIAVEWESNGQPENNYKTTPPVLDSDGSFFLYSKLTVDKSRWQQGNVFSCSVMHEALHNHYTQKSLSLSPGKGGGGSGGGGSGGGGSQAVVTQEPSLTVSPGGTVTLTCRSSTGAVTTSNYANWVQQKPGQAPRGLIGGTNKRAPWTPARFSGSLLGGKAALTLSGAQPEDEAEYYCALWYSNLWVFGGGTKLTVLGGGGSGGGGSGGGGSEVQLVESGGGLVQPGGSLRLSCAASGFTFNTYAMNWVRQAPGKGLEWVARIRSKYNNYATYYADSVKDRFTISRDDSKNILYLQMNSLKTEDTAMYYCVRHGNFGNSYVSWFAYWGQGTLVTVSA light: DLVMTQSPASLAVSPGQRATITCRASESVDSYGKSFMHWYQLKPGQPPKLLIYRASNLESGVPARFSGSGSRTDFTLTINPVEANDTANYYCQQNNEDPWTFGQGTKLEIKRTVAAPSVFIFPPSDEQLKSGTASVVCLLNNFYPREAKVQWKVDNALQSGNSQESVTEQDSKDSTYSLSSTLTLSKADYEKHKVYACEVTHQGLSSPVTKSFNRGEC | – | – | – | 80.3 nM | 0.099 nM
6 | BK-D-09 (bispecific antibody, human IgG1, kappa) heavy: QVQLVQSGAEVKKPGASVKVSCKASGYTFTNYYMKWVKQAPGQRLEWMGDLNPNNGDTFYNQKFKGRVTITVDKSASTAYMELSSLRSEDTAVYYCARTGRYEENAMDYWGQGTLVTVSSASTKGPSVFPLAPSSKSTSGGTAALGCLVKDYFPEPVTVSWNSGALTSGVHTFPAVLQSSGLYSLSSVVTVPSSSLGTQTYICNVNHKPSNTKVDKRVEPKSCDKTHTCPPCPAPEFEGGPSVFLFPPKPKDTLMISRTPEVTCVVVDVSHEDPEVKFNWYVDGVEVHNAKTKPREEQYNSTYRVVSVLTVLHQDWLNGKEYKCKVSNKALPASIEKTISKAKGQPREPQVYTLPPSREEMTKNQVSLTCLVKGFYPSDIAVEWESNGQPENNYKTTPPVLDSDGSFFLYSKLTVDKSRWQQGNVFSCSVMHEALHNHYTQKSLSLSPGKGGGGSGGGGSGGGGSQAVVTQEPSLTVSPGGTVTLTCRSSTGAVTTSNYANWVQQKPGQAPRGLIGGTNKRAPWTPARFSGSLLGGKAALTLSGAQTEDEAEYYCALWYSNLWVFGGGTKLTVLGGGGSGGGGSGGGGSEVQLVESGGGLVQPGGSLRLSCAASGFTFNTYAMNWVRQAPGKGLEWVARIRSKYNNYATYYADSVKDRFTISRDDSKNILYLQMNSLKTEDTAVYYCVRHGNFGNSYVSWFAYWGQGTLVTVSA light: DIVLTQSPASLAVSPGQRATITCRASESVDSYGKSFMHWYQQKPGQPPKLLIYRASNLESGVPARFSGSGSRTDFTLTINPVEANDTANYYCQQNNEDPWTFGQGTKLEIKRTVAAPSVFIFPPSDEQLKSGTASVVCLLNNFYPREAKVQWKVDNALQSGNSQESVTEQDSKDSTYSLSSTLTLSKADYEKHKVYACEVTHQGLSSPVTKSFNRGEC | – | – | – | 97.8 nM | –
